Experimental data taken from article PMC5971111 (Nature structural & molecular biology, 2018).

Assays:
Assay in all cases: […]
Sec15 = biological target: T1, Sec15 (S. cerevisiae, UniProt P22224 1-910)
T1 sequence: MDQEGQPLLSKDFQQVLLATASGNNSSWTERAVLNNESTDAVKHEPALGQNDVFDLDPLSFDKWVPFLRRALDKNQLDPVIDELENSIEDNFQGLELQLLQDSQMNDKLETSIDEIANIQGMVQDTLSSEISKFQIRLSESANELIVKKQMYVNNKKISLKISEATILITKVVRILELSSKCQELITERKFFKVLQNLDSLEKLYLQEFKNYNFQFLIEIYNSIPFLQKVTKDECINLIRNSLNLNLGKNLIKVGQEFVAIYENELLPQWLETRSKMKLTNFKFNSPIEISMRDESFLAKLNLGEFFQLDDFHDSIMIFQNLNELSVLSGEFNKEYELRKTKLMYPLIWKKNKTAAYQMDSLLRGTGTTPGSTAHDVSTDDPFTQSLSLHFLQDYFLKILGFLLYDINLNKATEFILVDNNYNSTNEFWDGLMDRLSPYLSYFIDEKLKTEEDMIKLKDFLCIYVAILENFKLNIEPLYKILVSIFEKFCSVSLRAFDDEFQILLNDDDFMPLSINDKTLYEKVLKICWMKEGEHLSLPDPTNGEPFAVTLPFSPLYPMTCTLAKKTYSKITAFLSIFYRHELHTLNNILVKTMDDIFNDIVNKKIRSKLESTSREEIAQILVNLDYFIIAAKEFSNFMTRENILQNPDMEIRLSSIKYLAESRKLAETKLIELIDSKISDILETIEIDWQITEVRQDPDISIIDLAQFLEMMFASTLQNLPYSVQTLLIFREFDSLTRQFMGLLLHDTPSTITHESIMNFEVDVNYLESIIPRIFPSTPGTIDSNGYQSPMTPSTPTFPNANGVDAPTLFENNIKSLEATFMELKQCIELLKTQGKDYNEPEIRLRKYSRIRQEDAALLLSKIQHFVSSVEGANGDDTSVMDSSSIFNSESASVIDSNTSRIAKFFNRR

Sec10 = biological target: T2, Sec10 (S. cerevisiae, UniProt Q06245 1-871)
T2 sequence: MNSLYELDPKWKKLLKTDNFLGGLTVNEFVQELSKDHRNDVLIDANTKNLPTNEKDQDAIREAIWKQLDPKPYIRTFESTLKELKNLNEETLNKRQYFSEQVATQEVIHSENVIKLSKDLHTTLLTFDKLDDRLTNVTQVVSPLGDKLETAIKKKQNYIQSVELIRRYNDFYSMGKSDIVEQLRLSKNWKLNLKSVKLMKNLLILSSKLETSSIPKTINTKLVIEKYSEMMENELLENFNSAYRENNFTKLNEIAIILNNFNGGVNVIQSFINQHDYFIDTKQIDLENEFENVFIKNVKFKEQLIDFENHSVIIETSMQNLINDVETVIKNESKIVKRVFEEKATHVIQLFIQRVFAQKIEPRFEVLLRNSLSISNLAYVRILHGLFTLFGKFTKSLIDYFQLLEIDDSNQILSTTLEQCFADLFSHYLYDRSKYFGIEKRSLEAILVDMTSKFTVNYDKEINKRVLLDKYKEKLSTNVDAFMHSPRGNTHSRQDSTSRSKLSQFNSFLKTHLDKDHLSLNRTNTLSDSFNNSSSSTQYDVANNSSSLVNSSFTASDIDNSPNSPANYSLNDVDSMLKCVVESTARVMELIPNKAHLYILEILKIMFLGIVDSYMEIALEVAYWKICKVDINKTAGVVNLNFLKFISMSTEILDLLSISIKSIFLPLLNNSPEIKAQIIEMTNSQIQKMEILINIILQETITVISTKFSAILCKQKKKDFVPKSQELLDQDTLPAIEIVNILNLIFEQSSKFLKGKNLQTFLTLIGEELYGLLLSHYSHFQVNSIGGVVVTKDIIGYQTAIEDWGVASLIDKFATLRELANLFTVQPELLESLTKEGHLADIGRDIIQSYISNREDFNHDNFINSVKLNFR

Sec5 = biological target: T3, Sec5 (S. cerevisiae, UniProt P89102 1-971)
T3 sequence: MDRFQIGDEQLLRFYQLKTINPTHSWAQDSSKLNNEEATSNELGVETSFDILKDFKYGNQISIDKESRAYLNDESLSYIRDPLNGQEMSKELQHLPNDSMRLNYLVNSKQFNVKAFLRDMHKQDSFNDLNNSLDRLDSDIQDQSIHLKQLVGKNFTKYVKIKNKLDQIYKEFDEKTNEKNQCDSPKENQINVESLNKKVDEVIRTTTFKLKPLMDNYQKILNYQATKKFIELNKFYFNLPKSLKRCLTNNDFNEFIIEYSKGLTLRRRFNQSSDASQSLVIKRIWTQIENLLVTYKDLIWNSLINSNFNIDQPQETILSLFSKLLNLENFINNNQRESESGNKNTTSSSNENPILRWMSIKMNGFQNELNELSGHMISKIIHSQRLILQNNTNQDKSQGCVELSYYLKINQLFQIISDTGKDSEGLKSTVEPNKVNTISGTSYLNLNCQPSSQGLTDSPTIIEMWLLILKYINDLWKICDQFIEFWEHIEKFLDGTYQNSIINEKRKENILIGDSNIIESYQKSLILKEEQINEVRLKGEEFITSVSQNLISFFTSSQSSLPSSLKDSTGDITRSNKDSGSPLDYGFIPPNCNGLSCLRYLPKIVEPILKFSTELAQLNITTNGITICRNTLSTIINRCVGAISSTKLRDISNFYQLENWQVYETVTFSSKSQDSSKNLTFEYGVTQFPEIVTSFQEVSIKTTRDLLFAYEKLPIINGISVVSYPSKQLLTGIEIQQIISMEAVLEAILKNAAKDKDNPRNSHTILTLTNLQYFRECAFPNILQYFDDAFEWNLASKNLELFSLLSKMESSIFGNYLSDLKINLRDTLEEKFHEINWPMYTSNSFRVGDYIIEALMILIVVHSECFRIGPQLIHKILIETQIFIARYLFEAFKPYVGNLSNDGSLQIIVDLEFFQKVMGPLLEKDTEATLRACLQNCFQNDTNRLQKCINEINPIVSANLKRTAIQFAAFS

Measured: binding result

B1: Exo84 (natural protein)
chain: MVEFSLKKARNNWKHVKKSASSPAKQKTPPSPAKPKQKTKKNPYSDLKDPATSYTLPTINARERSRVATSMQRRLSIHNTNYAPPTLDYSMPLPDMPNMIVPNDNVDSSHNNSSFTTENESVSSKGPSNSLNLSTADLSLNDSSYNKVPARSAMRNTVNPSGSNDPFNNSTSLRKMLANPHFNAKDFVHDKLGNASAITIDKFTSNLTDLSIQVQEEVKLNINKSYNEIMTVNNDLNVAMLELKRVRANINDLNEVLDQCTKIAEKRLQLQDQIDQERQGNFNNVESHSNSPALLPPLKAGQNGNLMRRDRSSVLILEKFWDTELDQLFKNVEGAQKFINSTKGRHILMNSANWMELNTTTGKPLQMVQIFILNDLVLIADKSRDKQNDFIVSQCYPLKDVTVTQEEFSTKRLLFKFSNSNSSLYECRDADECSRLLDVIRKAKDDLCDIFHVEEENSKRIRESFRYLQSTQQTPGRENNRSPNKNKRRSMGGSITPGRNVTGAMDQYLLQNLTLSMHSRPRSRDMSSTAQRLKFLDEGVEEIDIELARLRFESAVETLLDIESQLEDLSERISDEELMLLNLISLKIEQRREAISSKLSQSILSSNEIVHLKSGTENMIKLGLPEQALDLFLQNRSNFIQDLILQIGSVDNPTNYLTQLAVIRFQTIKKTVEDFQDIFKELGAKISSILVDWCSDEVDNHFKLIDKQLLNDEMLSPGSIKSSRKQIDGLKAVGLDFVYKLDEFIKKNSDKIR
binds: all assays above
